# From patent publication US20200199241A1 (Chugai, published 2020)
# Substitutions are numbered along the chain they refer to. Numbers in names are those of the source.
# T1: human FcγRIIa(R) (human, UniProt P12318 36-217)
# T1 construct: also called FcgRIIaR; hFcgRIIa(R)
# T1 chain: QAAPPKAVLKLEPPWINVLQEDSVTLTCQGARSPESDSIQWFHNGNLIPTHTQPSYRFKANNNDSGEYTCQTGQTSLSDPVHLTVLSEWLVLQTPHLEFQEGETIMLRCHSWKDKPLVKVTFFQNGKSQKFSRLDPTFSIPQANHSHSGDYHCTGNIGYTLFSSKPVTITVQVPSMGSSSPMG
# T2: human FcγRIIa(H) (human, UniProt P12318 36-217)
# T2 construct: also called FcgRIIaH; hFcgRIIa(H)
# T2 sequence: T1 chain with R133H
# T3: human FcγRIIb (human, UniProt P31994 43-217, limits assumed)
# T3 construct: also called FcgRIIb; hFcgRIIb
# T3 sequence: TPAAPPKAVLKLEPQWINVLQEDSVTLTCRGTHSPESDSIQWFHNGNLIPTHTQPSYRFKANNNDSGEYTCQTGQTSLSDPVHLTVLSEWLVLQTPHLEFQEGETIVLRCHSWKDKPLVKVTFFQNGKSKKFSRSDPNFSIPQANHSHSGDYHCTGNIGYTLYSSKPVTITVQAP
# B1: GpH7-B3 D270M/GpL16-k0 (antibody, human IgG1)
# heavy: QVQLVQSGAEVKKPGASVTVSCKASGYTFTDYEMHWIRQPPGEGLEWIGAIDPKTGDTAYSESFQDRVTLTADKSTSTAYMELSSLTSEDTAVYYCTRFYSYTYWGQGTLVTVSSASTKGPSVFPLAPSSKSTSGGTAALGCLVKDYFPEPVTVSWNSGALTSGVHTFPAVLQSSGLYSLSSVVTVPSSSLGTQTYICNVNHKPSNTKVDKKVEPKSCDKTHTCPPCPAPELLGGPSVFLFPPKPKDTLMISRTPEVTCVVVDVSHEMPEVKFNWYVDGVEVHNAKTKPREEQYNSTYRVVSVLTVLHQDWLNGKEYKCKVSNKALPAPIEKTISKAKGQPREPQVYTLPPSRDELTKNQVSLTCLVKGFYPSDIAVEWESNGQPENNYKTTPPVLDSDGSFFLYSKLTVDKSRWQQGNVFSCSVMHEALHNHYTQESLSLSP
# light: DIVMTQSPLSLPVTPGEPASISCQASESLVHSNRNTYLHWYLQKPGQSPQLLIYKVSNRFSGVPDRFSGSGSGTDFTLKISRVEAEDVGVYYCSQNTHVPPTFGQGTKVEIE
# notes: B3 variant; copies: 2 + 2
# B2: GpH7-B3 N325G/GpL16-k0 (antibody, human IgG1)
# heavy: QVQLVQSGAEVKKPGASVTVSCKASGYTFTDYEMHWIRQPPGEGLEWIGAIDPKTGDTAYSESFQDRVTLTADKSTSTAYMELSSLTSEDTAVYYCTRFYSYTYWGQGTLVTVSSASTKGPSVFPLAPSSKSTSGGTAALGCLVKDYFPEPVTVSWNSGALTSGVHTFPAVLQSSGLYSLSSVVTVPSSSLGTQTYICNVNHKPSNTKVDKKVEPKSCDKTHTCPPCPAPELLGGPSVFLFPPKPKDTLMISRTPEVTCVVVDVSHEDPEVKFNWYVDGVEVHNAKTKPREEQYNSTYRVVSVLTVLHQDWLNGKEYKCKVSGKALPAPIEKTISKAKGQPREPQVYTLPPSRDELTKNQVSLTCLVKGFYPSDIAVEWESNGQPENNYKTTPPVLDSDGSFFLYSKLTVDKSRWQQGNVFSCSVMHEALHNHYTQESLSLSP
# light: B1 light
# notes: B3 variant; copies: 2 + 2
# B3: GpH7-B3 D270Y/GpL16-k0 (antibody, human IgG1)
# heavy: not shown
# light: B1 light
# notes: B3 variant; copies: 2 + 2
# B4: GpH7-B3 N325R/GpL16-k0 (antibody, human IgG1)
# heavy: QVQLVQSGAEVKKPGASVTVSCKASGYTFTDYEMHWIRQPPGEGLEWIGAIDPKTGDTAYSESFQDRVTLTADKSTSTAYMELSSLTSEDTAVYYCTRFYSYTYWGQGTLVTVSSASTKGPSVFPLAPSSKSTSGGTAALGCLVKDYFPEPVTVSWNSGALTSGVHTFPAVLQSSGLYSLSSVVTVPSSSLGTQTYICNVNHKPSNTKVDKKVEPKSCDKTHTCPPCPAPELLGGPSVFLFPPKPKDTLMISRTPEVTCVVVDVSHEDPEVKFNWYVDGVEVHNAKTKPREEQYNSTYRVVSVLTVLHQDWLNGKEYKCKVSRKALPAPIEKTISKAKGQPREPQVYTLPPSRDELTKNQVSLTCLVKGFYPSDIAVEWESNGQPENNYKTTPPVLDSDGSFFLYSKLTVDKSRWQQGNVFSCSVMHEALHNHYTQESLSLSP
# light: B1 light
# notes: B3 variant; copies: 2 + 2
# B5: GpH7-B3 P271S/GpL16-k0 (antibody, human IgG1)
# heavy: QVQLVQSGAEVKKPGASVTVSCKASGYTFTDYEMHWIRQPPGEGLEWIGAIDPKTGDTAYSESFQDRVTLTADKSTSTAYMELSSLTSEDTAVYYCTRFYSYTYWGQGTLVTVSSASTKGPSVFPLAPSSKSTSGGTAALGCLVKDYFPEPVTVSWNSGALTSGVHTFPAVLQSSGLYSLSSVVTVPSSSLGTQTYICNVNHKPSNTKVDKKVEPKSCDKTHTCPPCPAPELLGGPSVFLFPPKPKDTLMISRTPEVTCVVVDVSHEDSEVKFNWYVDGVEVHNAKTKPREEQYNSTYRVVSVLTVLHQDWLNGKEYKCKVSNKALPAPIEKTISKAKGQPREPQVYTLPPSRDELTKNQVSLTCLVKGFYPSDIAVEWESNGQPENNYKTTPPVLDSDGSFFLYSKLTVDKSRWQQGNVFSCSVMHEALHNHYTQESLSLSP
# light: B1 light
# notes: B3 variant; copies: 2 + 2
# B6: GpH7-B3 D270T/GpL16-k0 (antibody, human IgG1)
# heavy: not shown
# light: B1 light
# notes: B3 variant; copies: 2 + 2
# B7: GpH7-B3 N325A/GpL16-k0 (antibody, human IgG1)
# heavy: not shown
# light: B1 light
# notes: B3 variant; copies: 2 + 2
# B8: GpH7-B3 P271W/GpL16-k0 (antibody, human IgG1)
# heavy: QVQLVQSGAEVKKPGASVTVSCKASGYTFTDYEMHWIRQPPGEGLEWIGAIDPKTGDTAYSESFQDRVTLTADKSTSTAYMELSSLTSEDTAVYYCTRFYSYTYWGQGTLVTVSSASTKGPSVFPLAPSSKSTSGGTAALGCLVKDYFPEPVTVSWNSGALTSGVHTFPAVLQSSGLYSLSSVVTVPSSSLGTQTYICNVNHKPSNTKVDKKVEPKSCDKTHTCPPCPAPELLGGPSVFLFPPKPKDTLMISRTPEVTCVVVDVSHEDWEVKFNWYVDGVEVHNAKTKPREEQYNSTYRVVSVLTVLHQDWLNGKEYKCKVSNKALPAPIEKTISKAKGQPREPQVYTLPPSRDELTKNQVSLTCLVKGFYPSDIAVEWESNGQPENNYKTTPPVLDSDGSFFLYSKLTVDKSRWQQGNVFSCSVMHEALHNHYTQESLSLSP
# light: B1 light
# notes: B3 variant; copies: 2 + 2
# B9: GpH7-B3 I332R/GpL16-k0 (antibody, human IgG1)
# heavy: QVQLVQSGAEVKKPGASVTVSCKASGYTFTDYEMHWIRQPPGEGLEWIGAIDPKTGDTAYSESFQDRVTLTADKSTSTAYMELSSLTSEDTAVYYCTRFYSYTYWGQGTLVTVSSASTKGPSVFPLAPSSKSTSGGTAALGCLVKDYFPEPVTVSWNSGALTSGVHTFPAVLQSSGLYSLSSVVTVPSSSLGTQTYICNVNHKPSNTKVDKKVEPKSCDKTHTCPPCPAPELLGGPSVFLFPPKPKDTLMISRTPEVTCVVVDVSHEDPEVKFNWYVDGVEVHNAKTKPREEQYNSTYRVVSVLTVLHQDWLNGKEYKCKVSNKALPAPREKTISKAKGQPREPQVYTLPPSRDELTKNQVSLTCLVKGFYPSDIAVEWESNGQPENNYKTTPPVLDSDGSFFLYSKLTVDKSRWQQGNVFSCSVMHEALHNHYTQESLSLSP
# light: B1 light
# notes: B3 variant; copies: 2 + 2
# B10: GpH7-B3 D270S/GpL16-k0 (antibody, human IgG1)
# heavy: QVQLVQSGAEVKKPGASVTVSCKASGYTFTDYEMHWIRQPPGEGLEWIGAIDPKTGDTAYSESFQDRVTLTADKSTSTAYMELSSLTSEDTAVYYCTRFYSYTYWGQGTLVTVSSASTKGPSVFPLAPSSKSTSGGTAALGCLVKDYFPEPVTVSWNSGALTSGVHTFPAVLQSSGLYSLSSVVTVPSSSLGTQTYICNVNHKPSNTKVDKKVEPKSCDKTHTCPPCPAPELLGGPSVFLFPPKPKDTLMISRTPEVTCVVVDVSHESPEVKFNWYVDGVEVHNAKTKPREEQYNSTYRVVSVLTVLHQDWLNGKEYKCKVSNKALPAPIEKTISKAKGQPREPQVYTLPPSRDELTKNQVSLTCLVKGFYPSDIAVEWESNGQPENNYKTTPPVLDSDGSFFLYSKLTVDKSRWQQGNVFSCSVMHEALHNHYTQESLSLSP
# light: B1 light
# notes: B3 variant; copies: 2 + 2
# B11: GpH7-B3 N325F/GpL16-k0 (antibody, human IgG1)
# heavy: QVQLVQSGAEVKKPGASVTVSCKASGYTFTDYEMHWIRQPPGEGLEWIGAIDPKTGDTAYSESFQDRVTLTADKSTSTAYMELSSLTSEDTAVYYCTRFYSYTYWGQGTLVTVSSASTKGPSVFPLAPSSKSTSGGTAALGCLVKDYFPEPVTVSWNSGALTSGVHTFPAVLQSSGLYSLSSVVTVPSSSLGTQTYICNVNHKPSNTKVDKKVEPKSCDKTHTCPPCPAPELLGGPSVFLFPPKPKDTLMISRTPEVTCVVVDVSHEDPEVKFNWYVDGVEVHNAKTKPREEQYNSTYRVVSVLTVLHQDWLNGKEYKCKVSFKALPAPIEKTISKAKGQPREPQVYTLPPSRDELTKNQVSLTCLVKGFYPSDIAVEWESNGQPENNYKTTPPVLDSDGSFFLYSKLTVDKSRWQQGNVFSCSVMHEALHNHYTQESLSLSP
# light: B1 light
# notes: B3 variant; copies: 2 + 2
# B12: GpH7-B3 L328N/GpL16-k0 (antibody, human IgG1)
# heavy: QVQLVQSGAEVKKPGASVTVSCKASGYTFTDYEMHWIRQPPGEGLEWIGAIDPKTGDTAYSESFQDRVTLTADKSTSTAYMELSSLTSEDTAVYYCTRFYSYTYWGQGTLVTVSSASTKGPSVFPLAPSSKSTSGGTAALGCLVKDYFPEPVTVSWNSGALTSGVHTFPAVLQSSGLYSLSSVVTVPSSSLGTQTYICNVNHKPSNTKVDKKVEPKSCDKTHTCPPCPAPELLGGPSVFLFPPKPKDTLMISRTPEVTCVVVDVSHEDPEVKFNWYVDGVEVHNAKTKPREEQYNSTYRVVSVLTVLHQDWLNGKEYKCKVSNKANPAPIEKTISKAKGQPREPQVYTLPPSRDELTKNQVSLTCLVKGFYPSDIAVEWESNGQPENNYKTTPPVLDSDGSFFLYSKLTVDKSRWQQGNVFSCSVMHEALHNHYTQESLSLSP
# light: B1 light
# notes: B3 variant; copies: 2 + 2
# B13: GpH7-B3 L328G/GpL16-k0 (antibody, human IgG1)
# heavy: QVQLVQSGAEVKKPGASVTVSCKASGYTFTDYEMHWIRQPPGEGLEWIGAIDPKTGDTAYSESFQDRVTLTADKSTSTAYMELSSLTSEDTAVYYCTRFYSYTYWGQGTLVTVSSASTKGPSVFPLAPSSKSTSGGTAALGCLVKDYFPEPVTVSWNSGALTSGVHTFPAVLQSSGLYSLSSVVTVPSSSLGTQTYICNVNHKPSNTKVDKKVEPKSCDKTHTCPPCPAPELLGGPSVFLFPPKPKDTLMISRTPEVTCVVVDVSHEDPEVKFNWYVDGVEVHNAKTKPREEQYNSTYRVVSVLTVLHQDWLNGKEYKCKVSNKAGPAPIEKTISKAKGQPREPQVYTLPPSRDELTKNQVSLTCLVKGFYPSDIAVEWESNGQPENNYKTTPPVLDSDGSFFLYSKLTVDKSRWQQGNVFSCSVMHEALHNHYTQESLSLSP
# light: B1 light
# notes: B3 variant; copies: 2 + 2
# B14: GpH7-B3 D270Q/GpL16-k0 (antibody, human IgG1)
# heavy: not shown
# light: B1 light
# notes: B3 variant; copies: 2 + 2
# B15: GpH7-B3 P271T/GpL16-k0 (antibody, human IgG1)
# heavy: not shown
# light: B1 light
# notes: B3 variant; copies: 2 + 2
# B16: GpH7-B3 L328R/GpL16-k0 (antibody, human IgG1)
# heavy: not shown
# light: B1 light
# notes: B3 variant; copies: 2 + 2
# Target: T4, human FcγRIa (human, UniProt P12314 16-292, limits assumed)
# T4 construct: also called FcgRIa; hFcgRIa
# Test: SPR, captured antibody;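 further: antibody captured on a sensor chip, Fcγ receptor flowed over at 25 °C, receptor binding normalized to the captured antibody amount and expressed relative to the reference antibody ×100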
# T4 sequence (P12314 16-292 limits assumed): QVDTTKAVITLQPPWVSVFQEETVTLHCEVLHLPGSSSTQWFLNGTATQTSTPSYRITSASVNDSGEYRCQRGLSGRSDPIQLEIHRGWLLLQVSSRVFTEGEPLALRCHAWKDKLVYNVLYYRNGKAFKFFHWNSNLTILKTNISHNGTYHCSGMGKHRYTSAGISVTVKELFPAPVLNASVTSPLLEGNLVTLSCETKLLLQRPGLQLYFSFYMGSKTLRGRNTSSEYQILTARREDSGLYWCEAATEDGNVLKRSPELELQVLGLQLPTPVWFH
row,relative binding activity,Binder
1,90 % of GpH7-B3/GpL16-k0,B1
2,95 % of GpH7-B3/GpL16-k0,B2
3,78 % of GpH7-B3/GpL16-k0,B3
4,56 % of GpH7-B3/GpL16-k0,B4
5,99 % of GpH7-B3/GpL16-k0,B5
6,81 % of GpH7-B3/GpL16-k0,B6
7,94 % of GpH7-B3/GpL16-k0,B7
8,100 % of GpH7-B3/GpL16-k0,B8
9,95 % of GpH7-B3/GpL16-k0,B9
10,73 % of GpH7-B3/GpL16-k0,B10
11,92 % of GpH7-B3/GpL16-k0,B11
12,98 % of GpH7-B3/GpL16-k0,B12
13,92 % of GpH7-B3/GpL16-k0,B13
14,82 % of GpH7-B3/GpL16-k0,B14
15,98 % of GpH7-B3/GpL16-k0,B15
16,26 % of GpH7-B3/GpL16-k0,B16

# Target: T1, human FcγRIIa(R)
# Test: SPR, captured antibody;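 further: antibody captured on a sensor chip, Fcγ receptor flowed over at 25 °C, receptor binding normalized to the captured antibody amount and expressed relative to the reference antibody ×100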
row,relative binding activity,Binder
1,7 % of GpH7-B3/GpL16-k0,B1
2,26 % of GpH7-B3/GpL16-k0,B2
3,-2 % of GpH7-B3/GpL16-k0,B3
4,0 % of GpH7-B3/GpL16-k0,B4
5,83 % of GpH7-B3/GpL16-k0,B5
6,1 % of GpH7-B3/GpL16-k0,B6
7,38 % of GpH7-B3/GpL16-k0,B7
8,46 % of GpH7-B3/GpL16-k0,B8
9,28 % of GpH7-B3/GpL16-k0,B9
10,0 % of GpH7-B3/GpL16-k0,B10
11,65 % of GpH7-B3/GpL16-k0,B11
12,25 % of GpH7-B3/GpL16-k0,B12
13,66 % of GpH7-B3/GpL16-k0,B13
14,2 % of GpH7-B3/GpL16-k0,B14
15,73 % of GpH7-B3/GpL16-k0,B15
16,-13 % of GpH7-B3/GpL16-k0,B16

# Target: T2, human FcγRIIa(H)
# Test: SPR, captured antibody;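 further: antibody captured on a sensor chip, Fcγ receptor flowed over at 25 °C, receptor binding normalized to the captured antibody amount and expressed relative to the reference antibody ×100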
row,relative binding activity,Binder
1,57 % of GpH7-B3/GpL16-k0,B1
2,7 % of GpH7-B3/GpL16-k0,B2
3,53 % of GpH7-B3/GpL16-k0,B3
4,1 % of GpH7-B3/GpL16-k0,B4
5,67 % of GpH7-B3/GpL16-k0,B5
6,38 % of GpH7-B3/GpL16-k0,B6
7,14 % of GpH7-B3/GpL16-k0,B7
8,75 % of GpH7-B3/GpL16-k0,B8
9,70 % of GpH7-B3/GpL16-k0,B9
10,49 % of GpH7-B3/GpL16-k0,B10
11,6 % of GpH7-B3/GpL16-k0,B11
12,34 % of GpH7-B3/GpL16-k0,B12
13,52 % of GpH7-B3/GpL16-k0,B13
14,78 % of GpH7-B3/GpL16-k0,B14
15,42 % of GpH7-B3/GpL16-k0,B15
16,-1 % of GpH7-B3/GpL16-k0,B16

# Target: T3, human FcγRIIb
# Test: SPR, captured antibody;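 further: antibody captured on a sensor chip, Fcγ receptor flowed over at 25 °C, receptor binding normalized to the captured antibody amount and expressed relative to the reference antibody ×100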
row,relative binding activity,Binder
1,6 % of GpH7-B3/GpL16-k0,B1
2,22 % of GpH7-B3/GpL16-k0,B2
3,-2 % of GpH7-B3/GpL16-k0,B3
4,0 % of GpH7-B3/GpL16-k0,B4
5,82 % of GpH7-B3/GpL16-k0,B5
6,-2 % of GpH7-B3/GpL16-k0,B6
7,27 % of GpH7-B3/GpL16-k0,B7
8,33 % of GpH7-B3/GpL16-k0,B8
9,23 % of GpH7-B3/GpL16-k0,B9
10,-1 % of GpH7-B3/GpL16-k0,B10
11,72 % of GpH7-B3/GpL16-k0,B11
12,78 % of GpH7-B3/GpL16-k0,B12
13,62 % of GpH7-B3/GpL16-k0,B13
14,0 % of GpH7-B3/GpL16-k0,B14
15,78 % of GpH7-B3/GpL16-k0,B15
16,-3 % of GpH7-B3/GpL16-k0,B16
